Data published in article PMC11490574, “IGF2BP1 phosphorylation in the disordered linkers regulates ribonucleoprotein condensate formation and RNA metabolism”.

Columns and labels:
IGF2BP1 RQ [1] = target: T1, IGF2BP1 RQ (UniProt Q9NZI8 1-577, R167Q;R168Q;R174Q;R178Q); assay: EMSA; EMSA: 25 mM HEPES pH 7.3, 150 mM NaCl, 5% glycerol, 2 mM EDTA, 10 ug/mL heparin, 0.5 mM TCEP, on ice, gel 4 C; FA: 25 mM HEPES 7.3, 150 mM NaCl, 0.025% Tween 20, 10 ug/mL heparin, 2 mM EDTA, 0.5 mM TCEP, 10 nM RNA, 20 C; details: protein: recombinant; tags: GST removed by 3C
T1 sequence (Q9NZI8 whole entry R167Q/R168Q/R174Q/R178Q): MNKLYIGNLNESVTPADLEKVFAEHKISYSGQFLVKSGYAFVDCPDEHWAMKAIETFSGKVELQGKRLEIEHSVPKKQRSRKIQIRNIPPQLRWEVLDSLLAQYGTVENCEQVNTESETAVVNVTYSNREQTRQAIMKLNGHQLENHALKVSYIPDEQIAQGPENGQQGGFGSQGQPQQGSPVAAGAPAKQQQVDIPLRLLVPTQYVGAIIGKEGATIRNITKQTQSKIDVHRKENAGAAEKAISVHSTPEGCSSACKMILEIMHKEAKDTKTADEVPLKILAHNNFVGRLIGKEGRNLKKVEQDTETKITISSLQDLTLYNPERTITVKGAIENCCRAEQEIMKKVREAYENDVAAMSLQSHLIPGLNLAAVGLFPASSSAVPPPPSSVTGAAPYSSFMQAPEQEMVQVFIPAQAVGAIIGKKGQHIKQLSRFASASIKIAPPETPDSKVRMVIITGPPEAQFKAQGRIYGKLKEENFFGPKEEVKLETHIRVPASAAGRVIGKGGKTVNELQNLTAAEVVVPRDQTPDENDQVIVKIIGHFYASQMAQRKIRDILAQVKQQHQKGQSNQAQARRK

[2] = target: T2, IGF2BP1 KH3-4dR (KH3GEEG-KH4GEEG) (UniProt Q9NZI8 1-577, K423E;K424E;K505E;G506E); assay: as above; details: protein: recombinant; tags: GST removed by 3C
T2 sequence (Q9NZI8 whole entry K423E/K424E/K505E/G506E): as the sequence (Q9NZI8 whole entry R167Q/R168Q/R174Q/R178Q) above, with Q167R, Q168R, Q174R, Q178R, K423E, K424E, K505E, G506E counted along it

IGF2BP1 S181E [3] = target: T3, IGF2BP1 S181E (UniProt Q9NZI8 1-577, S181E); assay: as above; details: protein: recombinant; tags: GST removed by 3C
T3 sequence (Q9NZI8 whole entry S181E): as the sequence (Q9NZI8 whole entry R167Q/R168Q/R174Q/R178Q) above, with Q167R, Q168R, Q174R, Q178R, S181E counted along it

IGF2BP1 Y396E [4] = target: T4, IGF2BP1 Y396E (UniProt Q9NZI8 1-577, Y396E); assay: as above; details: protein: recombinant; tags: GST removed by 3C
T4 sequence (Q9NZI8 whole entry Y396E): as the sequence (Q9NZI8 whole entry R167Q/R168Q/R174Q/R178Q) above, with Q167R, Q168R, Q174R, Q178R, Y396E counted along it

IGF2BP1 wild-type [5] = target: T5, IGF2BP1 wild-type (UniProt Q9NZI8 1-577); assay: as above; details: protein: recombinant; tags: GST removed by 3C
T5 sequence (Q9NZI8 whole entry): as the sequence (Q9NZI8 whole entry R167Q/R168Q/R174Q/R178Q) above, with Q167R, Q168R, Q174R, Q178R counted along it

IGF2BP1 KH3-4 = IGF2BP1 KH3-4 (UniProt Q9NZI8 405-553); assay: fluorescence anisotropy; EMSA: 25 mM HEPES pH 7.3, 150 mM NaCl, 5% glycerol, 2 mM EDTA, 10 ug/mL heparin, 0.5 mM TCEP, on ice, gel 4 C; FA: 25 mM HEPES 7.3, 150 mM NaCl, 0.025% Tween 20, 10 ug/mL heparin, 2 mM EDTA, 0.5 mM TCEP, 10 nM RNA, 20 C; details: protein: recombinant; tags: His removed by 3C; label: 5'-fluorescein
Chain of IGF2BP1 KH3-4 (Q9NZI8 405-553): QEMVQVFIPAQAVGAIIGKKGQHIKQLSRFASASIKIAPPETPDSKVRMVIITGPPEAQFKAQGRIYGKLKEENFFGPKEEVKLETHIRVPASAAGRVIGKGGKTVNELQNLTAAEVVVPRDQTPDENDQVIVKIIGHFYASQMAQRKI

IGF2BP1 KH1-4 = IGF2BP1 KH1-4 (UniProt Q9NZI8 195-553); assay: as above; details: protein: recombinant; tags: His removed by 3C; label: 5'-fluorescein
Chain of IGF2BP1 KH1-4 (Q9NZI8 195-553): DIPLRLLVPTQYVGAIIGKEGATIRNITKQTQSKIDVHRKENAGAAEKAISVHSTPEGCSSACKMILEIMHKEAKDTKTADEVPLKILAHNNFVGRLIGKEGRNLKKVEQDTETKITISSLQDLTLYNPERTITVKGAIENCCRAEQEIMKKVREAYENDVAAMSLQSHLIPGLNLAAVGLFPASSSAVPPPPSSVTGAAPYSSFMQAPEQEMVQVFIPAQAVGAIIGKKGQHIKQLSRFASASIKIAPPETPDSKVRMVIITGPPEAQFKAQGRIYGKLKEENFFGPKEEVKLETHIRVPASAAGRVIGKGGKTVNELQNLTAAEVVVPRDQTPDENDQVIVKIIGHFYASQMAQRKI

IGF2BP1 RQ [6] = target: T1, IGF2BP1 RQ; assay: as above; details: protein: recombinant; tags: GST removed by 3C; label: 5'-fluorescein
[7] = target: T2, IGF2BP1 KH3-4dR (KH3GEEG-KH4GEEG); assay: as above; details: protein: recombinant; tags: GST removed by 3C; label: 5'-fluorescein
IGF2BP1 S181E [8] = target: T3, IGF2BP1 S181E; assay: as above; details: protein: recombinant; tags: GST removed by 3C; label: 5'-fluorescein
IGF2BP1 Y396E [9] = target: T4, IGF2BP1 Y396E; assay: as above; details: protein: recombinant; tags: GST removed by 3C; label: 5'-fluorescein
IGF2BP1 wild-type [10] = target: T5, IGF2BP1 wild-type; assay: as above; details: protein: recombinant; tags: GST removed by 3C; label: 5'-fluorescein

B1: XBP1 201 nt (ssRNA)
RNA: UCUCAAAUCUGCUUUCAUCCAGCCACUGCCCAAAGCCAUCUUCCUGCCUACUGGAUGCUUACAGUGACUGUGGAUACGGGGGUUCCCUUUCCCCAUUCAGUGACAUGUCCUCUCUGCUUGGUGUAAACCAUUCUUGGGAGGACACUUUUGCCAAUGAACUCUUUCCCCAGCUGAUUAGUGUCUAAGGAAUGAUCCAAUACU
binding result (IGF2BP1 RQ [1]): binds
apparent K (half saturation) [2]: 64.7 nM
apparent K (half saturation) (IGF2BP1 S181E [3]): 17.1 nM
apparent K (half saturation) (IGF2BP1 Y396E [4]): 22.9 nM
apparent K (half saturation) (IGF2BP1 wild-type [5]): 41 nM

B2: MYC 191 nt (ssRNA)
RNA: UGCGUGACCAGAUCCCGGAGUUGGAAAACAAUGAAAAGGCCCCCAAGGUAGUUAUCCUUAAAAAAGCCACAGCAUACAUCCUGUCCGUCCAAGCAGAGGAGCAAAAGCUCAUUUCUGAAGAGGACUUGUUGCGGAAACGACGAGAACAGUUGAAACACAAACUUGAACAGCUACGGAACUCUUGUGCGUAA
apparent K (half saturation) (IGF2BP1 S181E [3]): 17.8 nM
apparent K (half saturation) (IGF2BP1 Y396E [4]): 16.7 nM
apparent K (half saturation) (IGF2BP1 wild-type [5]): 14.4 nM

B3: XBP1 36 nt (ssRNA)
RNA: GUGACAUGUCCUCUCUGCUUGGUGUAAACCAUUCUU
apparent K (half saturation) (IGF2BP1 KH3-4): ~1500 nM
apparent K (half saturation) (IGF2BP1 KH1-4): 204 nM
binding result (IGF2BP1 RQ [6]): binds
apparent K (half saturation) [7]: 186 nM
apparent K (half saturation) (IGF2BP1 S181E [8]): 310 nM
apparent K (half saturation) (IGF2BP1 Y396E [9]): 423 nM
apparent K (half saturation) (IGF2BP1 wild-type [10]): 312 nM

B4: EIF2A 200 nt (ssRNA)
RNA: AGAAAAUUCAGAAAGAAACAGCCCUUCUCCAGGAGCUGGAAGAUUUGGAAUUGGGUAUUUAAAGAUUCACGGAAAGCAAGUUGAUGACCAGAAAUCAGUGCAAACACAUCUUCUGUUAAACCCAUUGGUAUACACAGAAUAUUCCUGUGCCCACACUUAAUGUCAAUCUAUAAUUUUAACCAUUUAUCCAAGAUUCUACU
apparent K (half saturation) (IGF2BP1 S181E [3]): 35.4 nM
apparent K (half saturation) (IGF2BP1 Y396E [4]): 40.2 nM
apparent K (half saturation) (IGF2BP1 wild-type [5]): 48.2 nM

B5: ACTB 28 nt (ssRNA)
RNA: ACCGGACUGUUACCAACACCCACACCCC
apparent K (half saturation) (IGF2BP1 KH3-4): 1570 nM
apparent K (half saturation) (IGF2BP1 KH1-4): 75.2 nM
apparent K (half saturation) (IGF2BP1 wild-type [10]): 68.5 nM
